{
  "source": "patent US20200277374A1",
  "about": "(Alector, published 2020)",
  "binders": {"B1": {"name": "anti-Siglec-7 antibody 10B5 (antibody, V domains shown)", "VH": "QVHLQQSGPELVKPGASVKISCKASGYAFTNCWMNWVRQRPGKGLDWIGRIFPGNGHTNYSGKFKDKATLTEDKSSSTAYMQLSSLTSEDSAVYFCARDYSDYYFDYWGQGTTLTVSS", "VL": "DVQMTQTTSSLSASLGDRVTISCRASQDINTYLNWYQQKPDGTVKLLIYYTSRLHSGVPSRFSGSGSGTDYSLTISNLEQEDIATYFCQQGNTLPWTFGGGTKLEIK", "notes": "that light chain holds several Z and differs in its CDRs from S7-10B5.1 / 10B5L1; also called S7-10B5; mAb S7-10B5"}},
  "key": {"[1]": {"biological_target": "T1, human Siglec-7 expressed on human cells (primary monocytes, dendritic cells, macrophages, NK cells, … (human, UniProt Q9Y286 19-467))", "T1 sequence (Q9Y286 19-467)": "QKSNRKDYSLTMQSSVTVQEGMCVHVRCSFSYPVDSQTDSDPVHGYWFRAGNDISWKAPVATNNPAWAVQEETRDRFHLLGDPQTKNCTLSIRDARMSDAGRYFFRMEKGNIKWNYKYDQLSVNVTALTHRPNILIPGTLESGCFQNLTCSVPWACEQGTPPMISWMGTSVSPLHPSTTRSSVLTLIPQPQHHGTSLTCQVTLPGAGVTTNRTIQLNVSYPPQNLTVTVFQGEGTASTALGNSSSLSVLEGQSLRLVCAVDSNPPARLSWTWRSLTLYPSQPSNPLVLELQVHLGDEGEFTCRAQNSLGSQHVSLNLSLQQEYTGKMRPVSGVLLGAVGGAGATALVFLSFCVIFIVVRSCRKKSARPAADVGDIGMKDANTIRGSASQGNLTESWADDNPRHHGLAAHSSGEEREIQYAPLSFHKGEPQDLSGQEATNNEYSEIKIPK", "assay": "cell-based or functional assay"}, "[2]": {"biological_target": "T1, human Siglec-7 expressed on human cells …", "assay": "cell-based or functional assay", "remark": "listed apart in the source"}, "[3]": {"biological_target": "T1, human Siglec-7 expressed on human cells …", "assay": "FACS, human primary monocytes, 10 ug/ml mAb"}, "[4]": {"biological_target": "T1, human Siglec-7 expressed on human cells …", "assay": "FACS, human primary dendritic cells, 10 ug/ml mAb"}, "[5]": {"biological_target": "T1, human Siglec-7 expressed on human cells …", "assay": "FACS titration on primary human dendritic cells, donor 358, 4 C", "procedure": "(§1) Two Siglec-7 antibodies, 4E3 and 10B5, were titrated 2-fold for a 12-point curve with a concentration range of 6.67-0.00325 nM to assess binding and calculate half-maximal concentration (EC₅₀) for binding to primary human dendritic cells (FIG. 5B). Antibodies were serially diluted and incubated with cells in PBS with 1% BSA, 1 mM EDTA for 1 hour on ice (4° C.). Cells were pelleted and resuspended with goat anti-mouse secondary antibody conjugated with APC (BD Biosciences) at a 1:200 dilution in buffer. Secondary detection antibody was incubated for 30 minutes on ice (4° C.), then cells were washed 3 times in buffer before analyzing on a BD FACS Canto for APC MR. Data were analyzed with FlowJo Software (TreeStar)."}, "[6]": {"biological_target": "T1, human Siglec-7 expressed on human cells …", "assay": "FACS titration on primary human dendritic cells, donor 359, 4 C", "procedure": "as §1"}, "[7]": {"biological_target": "T2, Siglec-7-Fc (plate immobilized) (human, UniProt Q9Y286 19-357, limits assumed)", "T2 construct": "also called Siglec-7-Fc protein; immobilized Siglec-7; not shown: Fc part", "T2 sequence (Q9Y286 19-357 limits assumed)": "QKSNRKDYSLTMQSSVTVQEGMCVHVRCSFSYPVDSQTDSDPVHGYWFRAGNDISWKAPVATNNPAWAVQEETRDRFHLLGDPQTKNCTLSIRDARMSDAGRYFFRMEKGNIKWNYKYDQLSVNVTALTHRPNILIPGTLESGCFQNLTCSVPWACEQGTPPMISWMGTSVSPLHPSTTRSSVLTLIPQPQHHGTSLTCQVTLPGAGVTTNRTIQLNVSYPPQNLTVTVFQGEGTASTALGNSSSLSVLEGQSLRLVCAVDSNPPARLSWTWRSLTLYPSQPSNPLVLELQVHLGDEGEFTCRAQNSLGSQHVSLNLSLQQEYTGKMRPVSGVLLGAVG", "assay": "RBC solid adhesion assay, plate-coated Siglec-7-Fc, antibody 0.5 or 1.0 ug/ml; % of RBC binding without antibody", "how_it_was_run": "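Plates coated overnight at RT with 5 μg/ml Siglec-7-Fc and blocked in PBS with BSA and 1 mM CaCl₂. Antibody (0.5 or 1.0 μg/ml) bound 1 h at RT, then RBCs (3.0×10⁶ cells/ml) added for 1 h at RT. Bound RBCs lysed and detected by peroxidase at 450 nm, expressed as % of binding without antibody.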"}, "[8]": {"biological_target": "T3, Histidine-tagged human Siglec-7 (NovoProtein) (human, UniProt Q9Y286 19-357, limits assumed)", "T3 construct": "Bought protein; also called purified Siglec-7-his tagged protein; not shown: histidine tag", "T3 sequence (Q9Y286 19-357 limits assumed)": "as above", "assay": "SPR (BiaCore T200, 25 C), antibody captured on anti-mouse IgG, Siglec-7-His 100 nM, single-concentration kinetics", "procedure": "SPR data was collected at a rate of 10 Hz at 25′ C on a BiaCore T200 instrument. Data analysis was performed using BiaCore T200 Evaluation Software, version 2.0. HBS-EP+ (100 mM HEPES, 1.5 M NaCl, 30 mM EDTA, 0.5% v/v Surfactant P20, pH 7.4) was used as running buffer and for preparing reagents.\nMouse-derived antibodies (25 nM) against Siglec-7 were captured (60 s contact time, 30 μL/min flow rate, 0 s stabilization time) on a CM5 sensor chip (GE Healthcare) immobilized with anti-mouse IgG. Histidine-tagged human Siglec-7 (NovoProtein) was then flowed over the captured anti-Siglec-7 surface (120 s contact time, 30 μL/min flow rate, 300 s dissociation time). Concentration of antigen ranged from 5 nM to 100 nM, depending on information obtained from an initial screen. Duplicate single-concentration trials were performed and bracketed by a blank (0 nM antigen) sample. The chip surface was regenerated in between cycles using 10 mM glycine-HCl, pH1.7 (60 s contact time, 30 μL/min flow rate, 60 s stabilization time). The resulting SPR signal was obtained as the difference in response from measurements performed on a blank flow cell.\nAffinity constants (KD) were calculated from the ratio kd/kₐ. For one antibody (clone 1E8), we validated the single-concentration analysis with a multiple-concentration approach (five concentrations of antigen used, plus one blank)."}},
  "data": [
    {"binder": "B1", "values": [
      {"measurement": "Percent Siglec-7 Surface Expression, DCs", "setting": "[1]", "value": 16.8, "unit": "%"},
      {"measurement": "Percent Siglec-7 Surface Expression, Monocytes", "setting": "[1]", "value": 6.7, "unit": "%"},
      {"measurement": "Percent Siglec-7 Surface Expression, U937 cells", "setting": "[1]", "value": 36.5, "unit": "%"},
      {"measurement": "Percent Siglec-7 Surface Expression, Macrophages", "setting": "[2]", "value": 3.2, "unit": "%"},
      {"measurement": "Percent Siglec-7 Surface Expression, Microglia", "setting": "[2]", "value": 5.5, "unit": "%"},
      {"measurement": "Percent Siglec-7 Surface Expression, NK cells", "setting": "[2]", "value": 25.5, "unit": "%"},
      {"measurement": "% Positive", "setting": "[3]", "value": 99.2, "unit": "%"},
      {"measurement": "MFI", "setting": "[3]", "value": 417},
      {"measurement": "% Positive", "setting": "[4]", "value": 99.6, "unit": "%"},
      {"measurement": "MFI", "setting": "[4]", "value": 3230},
      {"measurement": "EC50", "setting": "[5]", "value": 1.43, "unit": "nM"},
      {"measurement": "EC50", "setting": "[6]", "value": 1.16, "unit": "nM"},
      {"measurement": "Percent RBC Binding to Siglec-7", "setting": "[7]", "value": 88.4, "unit": "%"},
      {"measurement": "Kd", "setting": "[8]", "value": 3, "unit": "nM"}
    ]}
  ]
}
